According to patent US20130251712A1 (NATIONAL RESEARCH COUNCIL OF CANADA, published 2013):

T1: TβR2ECD-cK5 (TβR2ECD with linker cassette fused to the cK5 C-terminal construct) (human)
T1 construct: Conditioned medium of 293 cells, expressed alone; also called TβR2-K5coil with internal cys/TEV
T1 chain: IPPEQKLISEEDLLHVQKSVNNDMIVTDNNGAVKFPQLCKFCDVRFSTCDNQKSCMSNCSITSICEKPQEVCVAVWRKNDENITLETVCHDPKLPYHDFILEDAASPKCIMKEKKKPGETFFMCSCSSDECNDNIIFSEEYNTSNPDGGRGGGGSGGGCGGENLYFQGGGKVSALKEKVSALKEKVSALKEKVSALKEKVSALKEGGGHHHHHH

T2: TβR2cK (R2cK), receptor-coil fusion with thrombin cleavage site, expressed alone (human)
T2 construct: Conditioned medium of 293 cells; also called TβR2cKcoil
T2 chain: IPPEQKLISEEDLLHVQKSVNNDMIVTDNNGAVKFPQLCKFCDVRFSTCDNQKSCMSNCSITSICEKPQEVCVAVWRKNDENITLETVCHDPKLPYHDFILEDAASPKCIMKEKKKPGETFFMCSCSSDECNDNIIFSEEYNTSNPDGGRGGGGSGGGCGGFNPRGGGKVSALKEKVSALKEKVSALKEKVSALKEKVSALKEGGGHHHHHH


Tests used:
[1] = molecular target: T1, TβR2ECD-cK5 (TβR2ECD with linker …); assay: non-reducing SDS gel and western blot with anti-TβR2 antibody; E/K coil dimer fixed by an interchain disulfide
[2] = molecular target: T2, TβR2cK (R2cK), receptor-coil fusion …; assay: non-reducing SDS gel and western blot with anti-TβRII antibody; E/K coil dimer fixed by an interchain disulfide
Method: Plasmids encoding the R2cK and R2cE constructs were transfected separately or co-transfected into 293 cells. Conditioned media from these cells were then analyzed by western blot to detect R2cK and R2cE expression and tested for TGF-β3 neutralization (FIG. 6A-C). By themselves R2cE or R2cK were unable to neutralize TGF-β3. […] Based on their activities in FIG. 6A, these forms are non-productive, i.e. cannot neutralize TGF-β. Expressed together, R2cE+R2cK predominantly form dimers of about 80 Kd and only minimal amounts of the monomers are seen in the non-reducing gel (FIG. 6B, lane 3), indicating a covalent, inter-chain disulfide bridge has been established (Click, FIG. 6B). Subsequent cleavage of R2cE+R2cK with a sufficient amount of thrombin (++) generates an R2c+R2c dimer (about 60 Kd) that is held together by an inter-chain disulfide (in the non-reducing SDS gel) and that no longer contains the coils (Cleave, FIG. 6C). The resultant TGF-/3 trap generated by the clamp/click/cleave (CCC) process described above is depicted as a molecular model in FIG. 7.

| Binder | binding result [1] | binding result [2] |
| --- | --- | --- |
| TβR2ECD-cE5 (TβR2ECD with linker cassette fused to the cE5 C-terminal construct) (receptor, Secreted into conditioned medium of transfected 293 cells; tested unpurified, expressed alone; also called TβR2-E5coil with internal cys/TEV) IPPEQKLISEEDLLHVQKSVNNDMIVTDNNGAVKFPQLCKFCDVRFSTCDNQKSCMSNCSITSICEKPQEVCVAVWRKNDENITLETVCHDPKLPYHDFILEDAASPKCIMKEKKKPGETFFMCSCSSDECNDNIIFSEEYNTSNPDGGRGGGGSGGGCGGENLYFQGGGEVSALEKEVSALEKEVSALEKEVSALEKEVSALEKGGGHHHHHH | binds | – |
| TβR2cE (R2cE), receptor-coil fusion with thrombin cleavage site, expressed alone (receptor, Conditioned medium of 293 cells; also called TβR2cEcoil) IPPEQKLISEEDLLHVQKSVNNDMIVTDNNGAVKFPQLCKFCDVRFSTCDNQKSCMSNCSITSICEKPQEVCVAVWRKNDENITLETVCHDPKLPYHDFILEDAASPKCIMKEKKKPGETFFMCSCSSDECNDNIIFSEEYNTSNPDGGRGGGGSGGGCGGFNPRGGGEVSALEKEVSALEKEVSALEKEVSALEKEVSALEKGGGHHHHHH | – | binds |
